The record followed here is doi:10.1101/2021.08.08.454510.

In the test the target is fluorophore-conjugated GCK peptide (aa 59-74), wild type (human) (UniProt P35557). In words: fluorescence polarisation.

Take “TNKS ARC1-5 with a C-terminal (His)6 tag (from UniProt O95271 1-1327) (domain or fragment)”: the Kd amounted to 500 nM.
